Columns and labels:
Type in all cases: biochemical
[1] = molecular target: T1, T. aurantiacus GH61A polypeptide (Thermoascus aurantiacus, UniProt G3XAP7, N13Y); test: Phosphoric acid swollen cellulose (PASC) hydrolysis assay (Examples 18, 19); conditions: A. oryzae CEL3A beta-glucosidase (20 mg protein per g cellulose) only; 72 hours, 50° C.
Procedure: A 1% phosphoric acid swollen cellulose (PASC) slurry was prepared from AVICEL® PH101 using the protocol described by Zhang et al., 2006, Biomacromolecules 7: 644-648.
The 1.0% PASC slurry prepared as described in Example 17 was thoroughly resuspended by shaking, and quickly transferred to a 100 ml beaker and stirred rapidly with a magnetic stirrer. Five hundred μl aliquots of the 1.0% PASC slurry were pipetted into wells of a 2.0 ml 96-deepwell plate (Axygen, Union City, Calif., USA) using a 1000 μl micropipette with a wide aperture tip (end of tip cut off about 2 mm from the base). One hundred μl of 10 mM MnSO4-500 mM sodium acetate pH 5 were then added to each well. […]
Primary analysis of the hydrolysis reactions was performed using an AGILENT® 1100 HPLC with CHEMSTATION® software equipped with an AMINEX™ HPX-87H column. […] Sugars were detected using a refractive index detector with quantification by integration compared to purified sugar standards.
All HPLC data processing was performed using MICROSOFT EXCEL™ software. […] In this assay only glucose was measured since beta-glucosidase was at high levels in all samples but the controls. Percent conversion was calculated using Equation 1. Triplicate data points were averaged and standard deviation was calculated. […]
Data were collected and analyzed, as described in Example 18, after 72 hours of incubation at 50° C.

[2] = molecular target: T1, T. aurantiacus GH61A polypeptide; test: Phosphoric acid swollen cellulose (PASC) conversion assay (Examples 20, 21); conditions: A. oryzae CEL3A beta-glucosidase (20 mg protein per g cellulose) only; 72 hours, 50° C.
Procedure: A 1.0% PASC slurry was prepared as described in Example 17. Ten ml of the 1.0% PASC slurry, 10 ml of H2O, and […] of dioxy compound were thoroughly mixed by shaking,
Five hundred μl aliquots of the 0.50% phosphoric acid swollen cellulose/0.05% dioxy compound slurry were pipetted into wells of a 2.0 ml 96-deepwell plate (Axygen, Union City, Calif., USA) using a 1000 μl micropipette with a wide aperture tip (end of tip cut off about 2 mm from the base). One hundred μl of 10 mM MnSO4-500 mM sodium acetate pH 5 were then added to each well. Two hundred μl of deionized water were added to each well. Enzyme mixtures were prepared and then added simultaneously to all wells in a volume of 200 μl, for a total of 1 ml in each reaction. […] All experiments reported were performed in triplicate.
(§1) Primary analysis of the hydrolysis reactions was performed using an AGILENT® 1100 HPLC with CHEMSTATION® software equipped with an AMINEX™ HPX-87H column. After approximately 4 days, the deep-well plate was removed from the incubator and chilled overnight to 4° C. The plate was then mixed well by inversion and briefly centrifuged 52×g in a SORVALL® RT7 centrifuge for 10 seconds. Samples were then mixed by pipetting, and 200 μl from each well were transferred to a MULTISCREEN® HV centrifuge filter plate assembly. The centrifuge filter plate assembly was centrifuged at 2000 rpm in a SORVALL® RT7 centrifuge for 20 minutes. […] Sugars were detected using a refractive index detector with quantification by integration compared to purified sugar standards.
All HPLC data processing was performed using MICROSOFT EXCEL™ software. […] In this assay only glucose was measured since beta-glucosidase was at high levels in all samples but the controls. Percent conversion was calculated using Equation 1. Triplicate data points were averaged and standard deviation was calculated.
The PASC assay was performed as described in Example 20.
Data were collected and analyzed, as described in Example 20, after 72 hours of incubation at 50° C.

[3] = molecular target: T1, T. aurantiacus GH61A polypeptide; test: Bacterial cellulose conversion assay (Examples 15, 16); conditions: A. oryzae CEL3A beta-glucosidase (50 mg protein per g cellulose) only; 72 hours, 50° C.
Procedure: Bacterial cellulose was prepared from NATA DE COCO (Huerto International Trading, Lucena City, Philippines) by extensive rinsing of one 500 ml can of cubes with water followed by homogenation for 15 minutes in 0.25 M sodium hydroxide using a WARING BLENDER® (Waring Products, Torrington, Conn., USA). The resulting slurry was pelleted at 40,000×g in a SORVALL® RT7 centrifuge. The supernatant was discarded. The pellet was then resuspended in 0.25 M sodium hydroxide and stirred overnight at 4° C. This procedure was repeated four times. Following the first washing steps, the cellulose was washed six times under similar conditions, substituting water for 0.25 M sodium hydroxide. Following the water washing, the cellulose was again homogenized for 15 minutes in a WARING BLENDER®, and adjusted to a final volume of 250 ml.
A 0.36% bacterial cellulose slurry was prepared as described in Example 14. This 0.36% slurry was thoroughly resuspended by shaking, and quickly transferred to a 100 ml beaker and stirred rapidly with a magnetic stirrer. Seven hundred μl aliquots of the bacterial cellulose slurry were pipetted into wells of a 2.0 ml 96-deepwell plate (Axygen, Union City, Calif.) using a 1000 μl micropipette with a wide aperture tip (end of tip cut off about 2 mm from the base). One hundred μl of 10 mM MnSO4-500 mM sodium acetate pH 5 was then added to each well. One hundred μl of either deionized water, a 1% gallic acid solution dissolved in water, or a 1% gallic acid solution containing 50 mM EDTA were added to each well. Enzyme mixtures were prepared and then added simultaneously to all wells in a volume of 100 μl, for a total of 1 ml in each reaction. […] All experiments reported were performed in triplicate.
as §1
All HPLC data processing was performed using MICROSOFT EXCEL™ software. […] In this assay only glucose was measured since beta-glucosidase was at high levels in all samples but the controls. Percent conversion was determined using Equation 1. Triplicate data points were averaged and standard deviation was calculated.
The bacterial cellulose hydrolysis assay was performed as described in Example 15.
Data was collected and analyzed, as described in Example 15, after 72 hours of incubation at 50° C.

T1 sequence (G3XAP7 whole entry N13Y): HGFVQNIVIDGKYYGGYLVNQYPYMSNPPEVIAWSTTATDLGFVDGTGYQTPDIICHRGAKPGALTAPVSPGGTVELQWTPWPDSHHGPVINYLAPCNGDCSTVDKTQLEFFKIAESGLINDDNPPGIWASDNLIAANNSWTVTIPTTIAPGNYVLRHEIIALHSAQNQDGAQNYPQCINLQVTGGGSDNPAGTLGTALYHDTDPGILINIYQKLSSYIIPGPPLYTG

B1: A. oryzae CEL3A beta-glucosidase: CEL3A beta-glucosidase (SEQ ID NO: 112), recombinantly prepared as described in WO 2004/099228 (protein, listed as Aspergillus oryzae)
chain: MKLGWIEVAALAAASVVSAKDDLAYSPPFYPSPWADGQGEWAEVYKRAVDIVSQMTLTEKVNLTTGTGWQLERCVGQTGSVPRLNIPSLCLQDSPLGIRFSDYNSAFPAGVNVAATWDKTLAYLRGQAMGEEFSDKGIDVQLGPAAGPLGAHPDGGRNWEGFSPDPALTGVLFAETIKGIQDAGVIATAKHYIMNEQEHFRQQPEAAGYGFNVSDSLSSNVDDKTMHELYLWPFADAVRAGVGAVMCSYNQINNSYGCENSETLNKLLKAELGFQGFVMSDWTAHHSGVGAALAGLDMSMPGDVTFDSGTSFWGANLTVGVLNGTIPQWRVDDMAVRIMAAYYKVGRDTKYTPPNFSSWTRDEYGFAHNHVSEGAYERVNEFVDVQRDHADLIRRIGAQSTVLLKNKGALPLSRKEKLVALLGEDAGSNSWGANGCDDRGCDNGTLAMAWGSGTANFPYLVTPEQAIQNEVLQGRGNVFAVTDSWALDKIAAAARQASVSLVFVNSDSGEGYLSVDGNEGDRNNITLWKNGDNVVKTAANNCNNTVVIIHSVGPVLIDEWYDHPNVTGILWAGLPGQESGNSIADVLYGRVNPGAKSPFTWGKTRESYGSPLVKDANNGNGAPQSDFTQGVFIDYRHFDKFNETPIYEFGYGLSYTTFELSDLHVQPLNASRYTPTSGMTEAAKNFGEIGDASEYVYPEGLERIHEFIYPWINSTDLKASSDDSNYGWEDSKYIPEGATDGSAQPRLPASGGAGGNPGLYEDLFRVSVKVKNTGNVAGDEVPQLYVSLGGPNEPKVVLRKFERIHLAPSQEAVWTTTLTRRDLANWDVSAQDWTVTPYPKTIYVGNSSRKLPLQASLPKAQ
conversion of PASC [1]: 2.4±0.5%
conversion of the phosphoric acid swollen cellulose [2]: 2.0±0.1%
conversion of the bacterial cellulose [3]: 2.4±2.9%

— patent US9394555B2, “Compositions comprising a polypeptide having cellulolytic enhancing activity and a dioxy compound and uses thereof” (priority 2010, dated 2016)
